The source of these data is US20230044381A1 (GUANGDONG FEIPENG PHARMACEUTICAL, published 2023).

Assay [1] has as its target T1, Human ICOS-hFc (human, UniProt Q9Y6W8 21-140).
T1 construct: Bought (ACRO); also called ICOS (ACRO)
T1 sequence (looked up): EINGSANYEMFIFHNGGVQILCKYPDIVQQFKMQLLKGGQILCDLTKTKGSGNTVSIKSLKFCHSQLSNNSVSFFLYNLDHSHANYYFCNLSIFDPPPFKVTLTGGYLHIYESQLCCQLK
In words: ELISA, antigen coated at 1 µg/ml. On the procedure: (§1) To verify the specificity of the antibody binding to PD-1, the binding assay of anti-PD-1 mouse monoclonal antibody with four different CD28 family member proteins was conducted. […] Anti-mouse IgG coupled with peroxidase (HRP) was used as a secondary antibody (Sigma). The color was developed by TMB, and after reaction termination, the absorbance was read by a microplate reader.

Assay [2] has as its target T2, Human CTLA4-hFc (human, UniProt P16410 37-162).
T2 construct: Bought (ACRO); also called CTLA-4 (ACRO)
T2 sequence (looked up): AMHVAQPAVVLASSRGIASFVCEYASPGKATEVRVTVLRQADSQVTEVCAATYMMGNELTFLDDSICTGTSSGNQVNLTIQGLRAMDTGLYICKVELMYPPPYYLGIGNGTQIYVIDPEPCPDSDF
Put plainly: ELISA, antigen coated at 1 µg/ml. On the procedure: as §1

Assay [3] has as its target T3, Human CD28-hFc (human, UniProt P10747 19-152).
T3 construct: Bought (ACRO); also called CD28 (ACRO)
In words: ELISA, antigen coated at 1 µg/ml. Here is the method:
as §1
(An ELISA detects its analyte on a solid surface through an enzyme-linked reagent.)

Assay [4] addresses T4, mouse PD1 on CHO cells (CHO-mousePD1) (mouse, UniProt Q02242 25-288).
T4 construct: whole, on cells; also called CHO-mPD1
T4 sequence (looked up): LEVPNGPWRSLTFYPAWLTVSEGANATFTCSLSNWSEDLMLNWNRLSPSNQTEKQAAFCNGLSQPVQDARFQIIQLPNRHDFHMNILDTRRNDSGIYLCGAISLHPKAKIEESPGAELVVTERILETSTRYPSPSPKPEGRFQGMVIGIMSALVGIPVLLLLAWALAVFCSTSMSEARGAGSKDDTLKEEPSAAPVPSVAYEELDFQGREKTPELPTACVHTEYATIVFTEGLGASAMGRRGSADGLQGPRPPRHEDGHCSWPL
In words: flow cytometry on CHO-mousePD1 cells. On the procedure: (§2) In order to evaluate binding of the anti-PD-1 mouse monoclonal antibody to CHO-hPD1, 2×10⁵ CHO-hPD1 cells and the anti-PD-1 mouse monoclonal antibody that diluted in a concentration gradient (the initial concentration was […], 3-fold serial dilution) were added to a 96-well plate. then it was incubated at 4° C. for 30 minutes. After the cells were washed once with a buffer (PBS containing 3% bovine serum albumin (BSA)), PE-labeled anti-mouse IgG(Fc) Ab (Biolegend) fluorescent secondary antibody was added, it was incubated at 4° C. for another 30 minutes. the cells were washed once with the buffer and resuspended in PBS, and then cell suspension was analyzed through flow cytometry by CytoFlex (Beckman flow cytometer), the amount of the antibody bound to the cells was measured according to the mean fluorescence intensity (MFI); the same method was used to evaluate binding of anti-PD-1 mouse monoclonal antibody to a CHO-cyno cell, and a CHO-mousePD1 (sometimes abbreviated as “CHO-mPD1” in the present invention) cell.

In assay [5] the target is T5, human PD-1 on the cell surface (CHO-hPD1 cells; PHA-activated human PBMC) (human, UniProt Q15116 25-288).
T5 construct: whole, on cells; the assay field tells which; also called CHO-PD1
In words: flow cytometry on CHO-hPD1 cells. Here is the method:
as §2

Assay [6] has as its target T6, monkey PD1 on CHO cells (CHO-cynoPD1) (monkey).
T6 construct: whole, on cells
Put plainly: flow cytometry on CHO-cynoPD1 cells. On the procedure:
as §2
(In general: A flow cytometer gives signals particle by particle.)

In assay [7] the target is T5, human PD-1 on the cell surface …. Put plainly: flow cytometry on PHA-activated human PBMC. Here is the method: After PBMC was obtained from fresh human peripheral blood by a lymphatic separation fluid gradient centrifugation method, the density was adjusted to 1×10⁶ cells/ml and then inoculated into T75. At the same time, PHA-L (Sigma) at a final concentration of 1 μg/ml was added to stimulate lymphocyte proliferation. After standing in an incubator supplied with 37° C. and 5% CO₂ for 3 days, cell suspension was taken out and centrifuged to remove the supernatant. Cells were resuspended in a buffer (PBS containing 3% BSA), and added into a 96-well U-shaped plate at a density of 2*10⁵ cells/well. And then the anti-PD1 antibody that prepared for a total of 10 concentration gradients (started from 30 μg/ml, diluted in a 3-fold gradient) was added. After incubation at 4° C. for 30 minutes, the plate was centrifuged at 300 g for 5 minutes, cells were washed once with the buffer, A PE-labeled goat anti-human IgG fluorescent antibody (Biolegend) was added, and incubated at 4° C. for 30 minutes; after incubation, the cells were washed once by centrifugation resuspended in PBS, and analyzed by a CytoFlex flow cytometer, to detect the amount of the antibody bound to PBMC.

The target in assay [8] is T1, Human ICOS-hFc. Put plainly: ELISA, antigen coated at 1 µg/ml, antibody 10 µg/ml. On the procedure:
as §1

Assay [9] deals with T2, Human CTLA4-hFc. The description is as above. On the procedure: as §1
The target of assay [10] is T7, Human PD-1-hFc (human, UniProt Q15116 25-167).
T7 construct: Bought (ACRO); also called PD-1 (ACRO)
The description is as above. On the procedure:
as §1

Assay [11] addresses T3, Human CD28-hFc. The description is as above. Here is the method:
as §1

Assay [12] has as its target T8, PD-1-his (ACRO) recombinant protein (UniProt Q15116 25-167).
T8 construct: Bought (ACRO); loaded on a HIS1K biosensor
In words: BLI (ForteBio Octet), PD-1-his loaded on HIS1K sensor, antibody in solution.

For assay [13], the target named is T5, human PD-1 on the cell surface …. Put plainly: flow cytometry, blocking of PD-L1-hFc (3 µg/ml) on CHO-hPD1 cells, mode 1 (ligand added first). On the procedure:
(§3) The ability of the anti-PD-1 mouse monoclonal antibody to block the binding of the ligand to CHO-hPD1 cells was analyzed by a flow cytometer.
(§4) The plate was centrifuged at 300 g for 5 minutes, cells were washed once with a buffer, a PE-labeled goat anti-human IgG fluorescent antibody (Biolegend) was added, and incubated at 4° C. for 30 minutes. After the cells were washed once by centrifugation, the cells were resuspended in PBS, and then analyzed by a Cyto Flex flow cytometer, to detect the amount of the ligand protein bound to the cells, and the IC₅₀ value of the PD-1 antibody blocking was calculated.

For assay [14] the target is unchanged. In words: flow cytometry, blocking of PD-L2-hFc (3 µg/ml) on CHO-hPD1 cells, mode 1 (ligand added first). Here is the method: as §3, §4
Assay [15] has the same target. In words: flow cytometry, blocking of PD-L1-hFc (3 µg/ml) on CHO-hPD1 cells, mode 2 (antibody added first). Here is the method: as §3, §4
For assay [16] the target is unchanged. Put plainly: flow cytometry, blocking of PD-L2-hFc (3 µg/ml) on CHO-hPD1 cells, mode 2 (antibody added first). On the procedure: as §3, §4

A value given as a limit tells only on which side of the number the result lay.

T5 sequence (Q15116 25-288): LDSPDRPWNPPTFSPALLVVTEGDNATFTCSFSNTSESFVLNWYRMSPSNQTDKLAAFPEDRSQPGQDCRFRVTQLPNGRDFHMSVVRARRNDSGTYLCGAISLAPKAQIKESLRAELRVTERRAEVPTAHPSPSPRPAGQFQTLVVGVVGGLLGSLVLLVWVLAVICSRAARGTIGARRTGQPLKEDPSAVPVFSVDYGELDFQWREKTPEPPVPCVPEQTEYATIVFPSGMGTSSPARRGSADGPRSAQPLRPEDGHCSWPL
T8 sequence (Q15116 25-167 limits assumed): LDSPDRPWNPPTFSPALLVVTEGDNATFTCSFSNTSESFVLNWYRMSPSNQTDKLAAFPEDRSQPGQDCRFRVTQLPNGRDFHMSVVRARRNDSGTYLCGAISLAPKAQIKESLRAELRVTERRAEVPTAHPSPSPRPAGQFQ
T7 sequence (Q15116 25-167): as the sequence (Q15116 25-167 limits assumed) above
T3 sequence (P10747 19-152): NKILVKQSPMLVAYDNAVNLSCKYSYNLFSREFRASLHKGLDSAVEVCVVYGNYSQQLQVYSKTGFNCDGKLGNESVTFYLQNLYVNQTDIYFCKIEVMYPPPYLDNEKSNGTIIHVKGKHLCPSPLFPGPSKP

B1: PD-1-112-C2 (antibody, V domains shown)
VH: QVQLQQPGAELVKPGASVKLSCKASGYTFTTYYMYWVKQRPGQGLEWIGGINPSNGGTNFNEKFKSKATLTVDKSSSTAYMQLSSLTSEDSAVYYCTRRDSNYDGGFDYWGQGTTLTVSS
VL: DIVLTQSPASLAVSLGQRATISCRASKSVSTSGYSYMHWYQQKPGQPPKLLIYLAYHLESGVPARFSGSGSGTDFTLNIHPVEEEDAATYYCQHSWELPITFGSGTKLEIKR
notes: Mouse monoclonal antibody from a hybridoma; also called hybridoma clone 112
In the case of B1, the binding result in assay [1] was “no binding (tested: 10 µg/ml)”; in assay [2], “no binding (tested: 10 µg/ml)”; in [3], “no binding (tested: 10 µg/ml)”; in assay [4], “no binding”. Moreover, the EC50 in assay [5] stood at 0.739 nM; in assay [6], 0.463 nM; in assay [7], 0.109 nM. Besides, the OD value in [8] came to 0.062 OD; in assay [9], 0.131 OD; in [10] it was 2.12 OD; in [11], 0.0625 OD. Besides, the Kd in [12] came out at 0.0435 nM. Moreover, in assay [12], the koff worked out at 3.18e-05 s⁻¹. Besides, the kon in [12] came out at 732000 M⁻¹ s⁻¹. For the same molecule, the IC50 in assay [13] worked out at 2.57 nM; in [14], 4.61 nM; in [15] it was 1.55 nM; in [16], 3.73 nM.

B2: PD-1-97-C2 (antibody, V domains shown)
VH: EVKLVESGGGLVKPGGSLKLSCAASGFTFSSYGMSWIRQTPEKRLEWVATISGGGRDSYYPDSMKGRFAISRDNAKNNLYLQMSSLRSEDTALYYCTRQLGPAWFAYWGQGTLVTVSA
VL: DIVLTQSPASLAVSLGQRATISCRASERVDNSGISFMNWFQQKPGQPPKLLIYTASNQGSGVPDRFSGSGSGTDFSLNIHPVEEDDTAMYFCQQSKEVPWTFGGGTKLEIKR
notes: Mouse monoclonal antibody from a hybridoma; also called hybridoma clone 97
In the case of B2, the binding result in assay [1] is “no binding (tested: 10 µg/ml)”; in [2], “no binding (tested: 10 µg/ml)”; in assay [3] it was “no binding (tested: 10 µg/ml)”; in [4] it was “no binding”. Further, the EC50 in assay [5] is 0.745 nM; in assay [6], 0.578 nM; in assay [7] it was 1.03 nM. For the same molecule, the OD value is 0.0636 OD in assay [8], 0.129 OD in assay [9], 2.37 OD in [10] and 0.0606 OD in [11]. Moreover, the Kd in assay [12] is under 0.001 nM. Further, the off-rate constant (koff) in [12] is under 1e-07 s⁻¹. In assay [12], the kon came to 468000 M⁻¹ s⁻¹. The IC50 in assay [13] stood at 2.22 nM; in assay [14], 7.54 nM; in [15], 1.62 nM; in assay [16], 3.49 nM.

B3: PD-1-76-C2 (antibody, V domains shown)
VH: QIQLVQSGPELKKPGETVKISCKASGYTFTNYGMNWVKQAPGKGLKWMGWINTHTGEPTYADDFKGRFAFSLETSASTAYLQIKNLKNEDVATYFCTKEGEGIGFAYWGQGTLVTVSA
VL: DVLMTQTPLSLPVSLGDQASISCRSSQSIVYSNGKTYLEWYLQKPGQSPKLLIYKVSNRFSGVPDRFSGSGSGTDFTLKISRVEAEDLGVYYCFQGSHVPNTFGGGTKLEIKR
notes: Mouse monoclonal antibody from a hybridoma; also called PD-76-C2; PD-1-76-02
Turning to B3, the binding result is reported as “no binding (tested: 10 µg/ml)” in [1], “no binding (tested: 10 µg/ml)” in [2], “no binding (tested: 10 µg/ml)” in assay [3] and “no binding” in assay [4]. Further, the EC50 amounted to 0.583 nM in assay [5], 0.576 nM in assay [6] and 0.02 nM in assay [7]. Also, the OD value was found to be 0.076 OD in [8], 0.146 OD in assay [9], 2.46 OD in [10] and 0.0616 OD in assay [11]. In assay [12], the Kd is under 0.001 nM. Moreover, the koff in assay [12] is under 1e-07 s⁻¹. Besides, the kon in [12] amounted to 771000 M⁻¹ s⁻¹. Also, the IC50 amounted to 2.28 nM in [13], 4.67 nM in [14], 1.4 nM in assay [15] and 3.11 nM in assay [16].

By EC50 is commonly meant the concentration at which the effect is half-maximal. Broadly, the Kd is the constant that tells how readily two partners part at equilibrium. Broadly, the koff is a measure of how fast the partners let go of each other. The term kon denotes a measure of how fast the partners come together. Broadly, the IC50 is the midpoint of a concentration-inhibition curve.
